In patent US20230270892A1, “CHELATOR COMPOSITIONS FOR RADIOMETALS AND METHODS OF USING SAME” (TRIUMF INC., priority 2020, published 2023):

Key:
[1] = in vivo; set-up: species or system mice; conditions: male, C57BL/6J, mouse, iv, total radioactivity
Procedure: The inventors performed an in vivo evaluation to establish the biodistribution profile of ^225Ac-crown-αMSH in B16F10 tumor bearing mice. The B16F10 cell line (Mus musculus) was obtained commercially from ATCC (CRL-6475), and confirmed pathogen-free using the IMPACT 1 mouse profile (IDEXX BioResearch). The cells were cultured in DMEM media (StemCell Technologies) supplemented with 10% FBS, 100 U/mL penicillin and 100 µg/mL streptomycin at 37° C. in a humidified incubator containing 5% CO2. All animal experiments were conducted according to the guidelines established by Canadian Council on Animal Care and approved by Animal Ethics Committee of the University of British Columbia (UBC). Male C57BL/6J mice were acquired in-house and kept under pathogen-free conditions in the Animal Resource Centre at the BC Cancer Research Centre. The mice were anesthetised by inhalation of 2% isoflurane in 2 L/min oxygen, and 1 x10^6 B16F10 cells were inoculated subcutaneously at right flank. Two to four days after inoculation, the mice were transferred to the UBC Centre of Comparative Medicine, where biodistribution studies were performed once the tumors reached 8-10 mm. At the day of biodistribution mice were injected in the tail vein with ~20 kBq of ^225Accrown-αMSH (range: 10.8-31.6 kBq). After injection mice were allowed to roam freely in their cages, and they were euthanized in groups of 4 at 2 hours post injection by CO2 asphyxiation under isoflurane anesthesia. Blood was collected by cardiac puncture and a full biodistribution performed. Organs were cleaned from blood, weighed and the activity determined using a calibrated gamma counter (Packard Cobra II Auto-gamma counter, Perkin Elmer, Waltham, MA, USA) using three energy windows: 60-120 keV (window A), 180-260 keV (window B), and 400-480 keV (window C). Counting was performed after 6 hours post-sacrifice to ensure equilibrium of the ^225Ac decay chain. Counts were decay corrected from the time of sacrifice and total organ weights were used for the calculation of injected dose per gram of tissue (% ID/g). No differences were noted between the data calculated by three different windows; therefore, the biodistributions are reported using the data acquired using window A. The inventors evaluated biodistribution of ^225Ac-crown-αMSH in mice bearing B16F10 tumors at 2 h post-injection (p.i.) in two separate studies using a total of 5 groups of mice (Table 3). In the first study, three conditions were evaluated: ^225Ac-crown-αMSH prepared the day before (18 h) (A, FIG. 22, right bars), same day (4 h) (B), or same day (4 h) with Sep-Pak purification (C); in the second study the inventors compared 225Ac-crown-αMSH labelled 4 hours before with Sep-Pak purification and with the introduction of 0.1 M L-ascorbate (D, FIG. 22, left bars), or ^225Ac-crown-αMSH prepared 18 hours prior with L-ascorbate (E).

[2] = DTPA challenge (transmetallation) of ^225Ac-crown-αMSH on HPLC; type: physicochemical; conditions: addition of 1000 eq. of DTPA, in 7 hours
[3] = Stability of ^225Ac-labelled crown complex left at ambient temperature; type: physicochemical; conditions: up to 5 days and up to 8 days in a second experiment
Procedure: The reaction was largely complete after 10 min. […] To obtain the data shown in FIG. 14, labeling with crown was conducted at room temperature for a period of 15 minutes, while labelling with DOTA was conducted at 90° C. for a period of 15 minutes.

Compound CCCC[C@H](NC(=O)CN1CCC(NC(=O)CN2CCOCCN(CC(=O)O)CCN(CC(=O)O)CCOCCN(CC(=O)O)CC2)CC1)C(=O)N[C@H]1CC(=O)NCCCC[C@@H](C(N)=O)NC(=O)[C@H](Cc2c[nH]c3ccccc23)NC(=O)[C@H](CCCNC(=N)N)NC(=O)[C@@H](Cc2ccccc2)NC(=O)[C@H](Cc2c[nH]cn2)NC1=O [^225Ac-crown-αMSH, metal not drawn] has a tissue uptake at 2 h ([1]; 20 kBq, Biodistribution: Bone) of 1.82 %ID/g, a tissue to tissue ratio at 2 h ([1]; tumor to blood ratio) of 85.4 ± 46.8 and a tissue to tissue ratio at 2 h ([1]; tumor to bone ratio) of 63.5 ± 13.2. The tissue to tissue ratio at 2 h ([1]; tumor to kidneys ratio) was 2.8 ± 0.98, the tissue uptake at 2 h ([1]; tumor uptake) was 12.7 ± 2.31 %ID/g and the “transmetallation on HPLC” value [2] was 64%.

For O=C(O)CN1CCOCCN(CC(=O)O)CCN(CC(=O)O)CCOCCN(CC(=O)O)CC1 [crown, 2,2’,2”,2’”-(1,10-dioxa-4,7,13,16-tetraazacyclooctadecane-4,7,13,16-tetrayl)tetraacetic acid], the “free ^225Ac observed” value [3] was < 2%.
